Source: article PMC11382572, “Structural and kinetic insights into the stereospecific oxidation of R-2,3-dihydroxypropanesulfonate by DHPS-3-dehydrogenase from Cupriavidus pinatubonensis” (Chemical Science, 2024)

Columns and labels:
Assay type in all cases: biochemical, Cupriavidus pinatubonensis
[1] = substrate: O=S(=O)(O)C[C@H](O)CO; assay: purified protein; details: Zn2+, NAD+
[2] = substrate: NC(=O)c1ccc[n+]([C@@H]2O[C@H](COP(=O)([O-])OP(=O)(O)OC[C@H]3O[C@@H](n4cnc5c(N)ncnc54)[C@H](O)[C@@H]3O)[C@@H](O)[C@H]2O)c1; assay: X-ray crystal structure by soaking (open conformation); Michaelis-Menten kinetics (apparent KM); details: Zn2+ nonproductive complex; nicotinamide group disordered, modelled with zero occupancy; varied: cofactor
[3] = substrate: O=CC(O)CS(=O)(=O)O; assay: Michaelis-Menten kinetics (apparent KM); LCMS product; details: Zn2+, NAD+

B1: DHPS-3-dehydrogenase (CpHpsN) (Cupriavidus pinatubonensis JMP134) (protein)
chain: MISYLKKAEKTPQTETATAQKVVTEMLAEIQARGKDAVRQYAKQLDGWSGDIVLTPDQIREQTKDVPAGVRADIDFAIRQVTDFALAQRESLKEFSVELHPGVTAGQRVLPVNVVGCYAPAGRYAHIASAYMGVATAKAAGVKTVVACSSPFRGQGIHPHVLYAFQAAGADVIMALGGVQAIASMAYGLFTGKPADVVVGPGNKFVAEAKRSLYGQVGIDVFAGPSEVAVIADETADPAIVASDLVGQAEHGHESPAWLFTTSRDLADRVMALVPELIAKLPPTARDAATAAWRDYGEVILCGTREEVVEISDRYASEHLEVHTADLDWWLANLTCYGSLFLGEETTVAFGDKTSGPNHVLPTKGAARYSGGLSVHKFMKTLTWQQMTREATRQIGQVTARISRLEGMEAHARTADDRMAKYFPNASFEMGTPVEV
[1]
  Km: 1300 ± 150 µM
  kcat/Km: 750 ± 200 M⁻¹ s⁻¹
[2]
  Km: 470 ± 100 µM
  kcat/Km: 3400 ± 1100 M⁻¹ s⁻¹
[3]
  Km: 360 ± 60 µM
  kcat/Km: 8600 ± 830 M⁻¹ s⁻¹
